Paper PMC11134845, “Development of a highly effective combination monoclonal antibody therapy against Herpes simplex virus” (Journal of Biomedical Science, 2024)
“And” between values parts separate entries of the source, which are not always exact repeats. Equal entries are not always repeated.

What was measured:
Conditions in all cases: both partners purified
[1] = target: T1, HSV-1F gB ectodomain (recombinant glycoprotein B of Herpes simplex virus 1 strain F, aa 30-729) (Herpes simplex virus 1 (strain F), UniProt P06436, biotin (EZ-Link NHS-PEG4-Biotin, gB monomer to biotin 1:3) in the BLI only); assay: BLI
[2] = target: T2, HSV-2G gB ectodomain (recombinant glycoprotein B of Herpes simplex virus 2 strain G, aa 22-724) (Herpes simplex virus 2 (strain G), biotin (EZ-Link NHS-PEG4-Biotin, gB monomer to biotin 1:3) in the BLI only); assay: BLI
T2 construct: also called HSV-2 gB; recombinant HSV-2 gB; not shown: double Strep-tag, C-terminal, cleaved

[3] = target: T1, HSV-1F gB ectodomain (recombinant …); assay: cryo-EM structure
[4] = target: T2, HSV-2G gB ectodomain (recombinant …); assay: cryo-EM structure
[5] = target: T1, HSV-1F gB ectodomain (recombinant …); assay: cryo-EM 2D class averages; recombinant HSV-1 gB trimers incubated with a 1:1 molar mixture of HDIT101 and HDIT102 Fabs; 2D classes calculated from micrographs

Binder	kon [1] [M⁻¹ s⁻¹]	Kd [1] [nM]	koff [1] [s⁻¹]	Kd [2] [nM]	koff [2] [s⁻¹]	kon [2] [M⁻¹ s⁻¹]	stoichiometry N [3] [Fab per gB trimer]	stoichiometry N [4] [Fab per gB trimer]	stoichiometry N [5]
HDIT101 IgG (antibody, V domains shown, also called humanized IgG HDIT101; source: GMP-grade, produced by Celonic Germany GmbH (contract manufacturer)) VH: TLKESGPALVKPTQTLTLTCTFSGFSLSTSGMSVGWIRQPPGKALEWLAHIWWNNDKYYKPALKSRLTISKDTSKNQVVLTMTNMDPVDTATYYCARIYYGYRPYAMDYWGQGTLVTVSS VL: IVMTQTPLSLPVTPGEPASISCRSSQSIVHSNGNTYLEWYLQKPGQSPQLLIYKVSNRFSGVPDRFSGSGSGTDFTLKISRVEAEDVGVYYCFQGSHVPWSFGQGTKLEIK	500000								
HDIT101 Fab (Fab, V domains shown, source: papain digestion of GMP-grade HDIT101 IgG1 (Celonic Germany GmbH), Pierce Fab Preparation Kit) VH: TLKESGPALVKPTQTLTLTCTFSGFSLSTSGMSVGWIRQPPGKALEWLAHIWWNNDKYYKPALKSRLTISKDTSKNQVVLTMTNMDPVDTATYYCARIYYGYRPYAMDYWGQGTLVTVSS VL: IVMTQTPLSLPVTPGEPASISCRSSQSIVHSNGNTYLEWYLQKPGQSPQLLIYKVSNRFSGVPDRFSGSGSGTDFTLKISRVEAEDVGVYYCFQGSHVPWSFGQGTKLEIK	435000	7.26	0.00313	18.1	0.00379	212000	3	3	1 Fab per gB trimer
HDIT102 Fab (Fab, V domains shown) VH: EVQLVQSGAEVKTPGASVRVSCKASGHTFRTFDINWVRQAAGQGLEWMGWMSPNSGNTGYARQFQGRVTMTRNISANTAYMELRGLRFDDTAVYYCARGPGSTGTTGSMDVWGQGTTVTVSS VL: QAGLTQPPSVSVAPGKTARISCGGNNIGSKSVHWYQQKPGQAPVLVIYYDSDRPSGIPERFSGSNSGNTATLTISRVEAGDEADYYCQVWDSGSVVFGGGTKLTVL	992000	0.0895	8.85e-05	0.0329	2.86e-05	865000			3 Fab per gB trimer and 2 Fab per gB trimer
HDIT102 IgG (antibody, V domains shown, also called fully human IgG HDIT102; source: research grade quality, by contract manufacturer) VH: EVQLVQSGAEVKTPGASVRVSCKASGHTFRTFDINWVRQAAGQGLEWMGWMSPNSGNTGYARQFQGRVTMTRNISANTAYMELRGLRFDDTAVYYCARGPGSTGTTGSMDVWGQGTTVTVSS VL: QAGLTQPPSVSVAPGKTARISCGGNNIGSKSVHWYQQKPGQAPVLVIYYDSDRPSGIPERFSGSNSGNTATLTISRVEAGDEADYYCQVWDSGSVVFGGGTKLTVL	700000								
